Laboratory results: article doi:10.1101/2025.04.09.647960

Molecular target: WT myostimulin (human C1orf54, residues 17-131) (human) (UniProt Q8WWF1)
Test: RP-HPLC-MS

stoichiometry N: 2
Substance: WT myostimulin (human C1orf54, residues 17-131) (from UniProt Q8WWF1 17-131) (natural protein)
